From patent EP3057986B1

Target: CD16V-BB-ζ chimeric receptor (human)
Test: cell-based or functional assay

Substance: hu14.18K322A (antibody)
- 24-hour cytotoxicity against NB1691 cells at 1:8 E:T: > 50%
